Test results reported in patent US5928893.

Tests used:
[1] = target: human 4-1BB on T cells (human) (UniProt Q07011)
[2] = target: human 4-1BB on T cells (human) (UniProt Q07011); assay: flow cytometry, normal (non-activated) human CD4+ T cells
[3] = target: human 4-1BB on T cells (human) (UniProt Q07011); assay: flow cytometry, normal (non-activated) human CD8+ T cells
[4] = target: human 4-1BB on T cells (human) (UniProt Q07011); assay: flow cytometry, PBL CD4+ T cells, rheumatoid arthritis patient 2
[5] = target: human 4-1BB on T cells (human) (UniProt Q07011); assay: flow cytometry, PBL CD8+ T cells, rheumatoid arthritis patient 2
[6] = target: human 4-1BB on T cells (human) (UniProt Q07011); assay: flow cytometry, human CD4+ T cells activated with Con A for 24 hours
[7] = target: human 4-1BB on T cells (human) (UniProt Q07011); assay: flow cytometry, human CD8+ T cells activated with Con A for 24 hours
[8] = target: human 4-1BB on T cells (human) (UniProt Q07011); assay: flow cytometry, PBL CD4+ T cells, rheumatoid arthritis patient
[9] = target: human 4-1BB on T cells (human) (UniProt Q07011); assay: flow cytometry, PBL CD8+ T cells, rheumatoid arthritis patient
[10] = target: human 4-1BB on T cells (human) (UniProt Q07011); assay: flow cytometry, synovial lymphocyte CD4+ T cells, rheumatoid arthritis patient 2
[11] = target: human 4-1BB on T cells (human) (UniProt Q07011); assay: flow cytometry, synovial lymphocyte CD8+ T cells, rheumatoid arthritis patient 2
[12] = target: human 4-1BB on T cells (human) (UniProt Q07011); assay: flow cytometry, synovial lymphocyte CD4+ T cells, rheumatoid arthritis patient
[13] = target: human 4-1BB on T cells (human) (UniProt Q07011); assay: flow cytometry, synovial lymphocyte CD8+ T cells, rheumatoid arthritis patient

**Q.** Which results are given for monoclonal antibody 4B4-1-1?
**A.** suppression rate (%) of one way-allogeneic mixed lymphocyte reaction (3H-thymidine uptake) [1]: 67%; % of CD4+ T cells showing positive responses [2]: 17%; % of CD8+ T cells showing positive responses [3]: 36%; % of T Cells Showing Reactivity with 4B4-1-1 [4]: 20%; % of T Cells Showing Reactivity with 4B4-1-1 [5]: 43.5%; % of CD4+ T cells showing positive responses [6]: 72%; % of CD8+ T cells showing positive responses [7]: 89%; % of T Cells Showing Reactivity with 4B4-1-1 [8]: 2.2%; % of T Cells Showing Reactivity with 4B4-1-1 [9]: 12.7%; % of T Cells Showing Reactivity with 4B4-1-1 [10]: 38%; % of T Cells Showing Reactivity with 4B4-1-1 [11]: 42.4%; % of T Cells Showing Reactivity with 4B4-1-1 [12]: 11.3%; % of T Cells Showing Reactivity with 4B4-1-1 [13]: 68.1%
